Experimental data published in patent US20090317363A1.
Numbering of substitutions follows the chain as printed.

B1: RANTES derivative: signature sequence SEQ ID NO: 69 fused to positions 10-68 of native RANTES (SEQ ID NO: 1) (ligand)
chain: QGPPLMSGQVCCFAYIARPLPRAHIKEYFYTSGKCSNPAVVFVTRKNRQVCANPEKKWVREYINSLEMS
B2: RANTES derivative: signature sequence SEQ ID NO: 11 fused to positions 10-68 of native RANTES (SEQ ID NO: 1) (ligand)
chain: B1 chain with S7A, G8L
B3: RANTES derivative: signature sequence SEQ ID NO: 18 fused to positions 10-68 of native RANTES (SEQ ID NO: 1) (ligand)
chain: B1 chain with L5G, M6S, S7Y, G8D, Q9Y, V10S
B4: RANTES derivative: signature sequence SEQ ID NO: 21 fused to positions 10-68 of native RANTES (SEQ ID NO: 1) (ligand)
chain: B1 chain with L5G, M6D, S7W, G8L
B5: RANTES derivative: signature sequence SEQ ID NO: 22 fused to positions 10-68 of native RANTES (SEQ ID NO: 1) (ligand)
chain: B1 chain with G8F, V10S
B6: RANTES derivative: signature sequence SEQ ID NO: 23 fused to positions 10-68 of native RANTES (SEQ ID NO: 1) (ligand)
chain: B1 chain with G8T, V10S
B7: RANTES derivative: signature sequence SEQ ID NO: 28 fused to positions 10-68 of native RANTES (SEQ ID NO: 1) (ligand)
chain: B1 chain with L5G, M6S, S7W, G8S, Q9S
B8: RANTES derivative: signature sequence SEQ ID NO: 8 fused to positions 10-68 of native RANTES (SEQ ID NO: 1) (ligand)
chain: B1 chain with S7W, G8M, V10S
B9: RANTES derivative: signature sequence SEQ ID NO: 13 fused to positions 10-68 of native RANTES (SEQ ID NO: 1) (ligand)
chain: B1 chain with S7W, G8R, Q9G, V10S
B10: RANTES derivative: signature sequence SEQ ID NO: 29 fused to positions 10-68 of native RANTES (SEQ ID NO: 1) (ligand)
chain: B1 chain with M6G, G8M, Q9G, V10P
B11: RANTES derivative: signature sequence SEQ ID NO: 19 fused to positions 10-68 of native RANTES (SEQ ID NO: 1) (ligand)
chain: B1 chain with L5G, M6D, S7G, Q9S
B12: RANTES derivative: signature sequence SEQ ID NO: 17 fused to positions 10-68 of native RANTES (SEQ ID NO: 1) (ligand)
chain: B1 chain with L5G, M6D, S7I, G8V, Q9L, V10A
B13: RANTES derivative: signature sequence SEQ ID NO: 24 fused to positions 10-68 of native RANTES (SEQ ID NO: 1) (ligand)
chain: B1 chain with G8L
B14: RANTES derivative: signature sequence SEQ ID NO: 3 fused to positions 10-68 of native RANTES (SEQ ID NO: 1) (ligand)
chain: B1 chain with S7W, G8M
B15: RANTES derivative: signature sequence SEQ ID NO: 12 fused to positions 10-68 of native RANTES (SEQ ID NO: 1) (ligand)
chain: B1 chain with S7W, G8L, Q9G, V10G
B16: RANTES derivative: signature sequence SEQ ID NO: 15 fused to positions 10-68 of native RANTES (SEQ ID NO: 1) (ligand)
chain: B1 chain with S7Q, G8T, Q9T, V10P
B17: RANTES derivative: signature sequence SEQ ID NO: 20 fused to positions 10-68 of native RANTES (SEQ ID NO: 1) (ligand)
chain: B1 chain with P4L, L5S, M6G, S7Q, G8S, Q9T, V10P
B18: RANTES derivative: signature sequence SEQ ID NO: 26 fused to positions 10-68 of native RANTES (SEQ ID NO: 1) (ligand)
chain: B1 chain with P4L, L5S, M6G, S7W, G8L
B19: RANTES derivative: signature sequence SEQ ID NO: 14 fused to positions 10-68 of native RANTES (SEQ ID NO: 1) (ligand)
chain: B1 chain with P4L, S7W, G8L
B20: RANTES derivative: signature sequence SEQ ID NO: 16 fused to positions 10-68 of native RANTES (SEQ ID NO: 1) (ligand)
chain: B1 chain with L5G, M6D, S7T, G8V, Q9L, V10W
B21: RANTES derivative: signature sequence SEQ ID NO: 10 fused to positions 10-68 of native RANTES (SEQ ID NO: 1) (ligand)
chain: B1 chain with S7W, G8L, V10S

Target: CCR5 (UniProt P51681)
Experiment: cell-based or functional assay

Row | Molecule | CCR5 sequestration (%) (% of control surface CCR5) | CCR5 signalling (%) (% of Emax of PSC-RANTES) | anti-HIV potency (IC50, nM) by cell fusion assay | anti-HIV potency (IC50, nM) by viral replication assay
1 | B1 | 38 | 20.1 | 0.22 nM | 
2 | B2 | 9 | 1.6 | 0.03 nM | 
3 | B3 | 69 | 90.1 | 0.08 nM | 
4 | B4 | 54 | 14.2 | 0.54 nM | 
5 | B5 | 12 | 2.4 | 0.02 nM | 0.47 nM
6 | B6 | 35 | 5.3 | 0.03 nM | 0.625 nM
7 | B7 | 59 | 45 | 0.03 nM | 0.213 nM
8 | B8 | 0 | 2.5 | 0.03 nM | 0.278 nM
9 | B9 | 9 | < 5 | 0.07 nM | 
10 | B10 | 36 | 22.6 | 0.39 nM | 
11 | B11 | 66 | 85.1 | 0.28 nM | 
12 | B12 | 70 | 87.7 | 0.02 nM | 129 nM
13 | B13 | 35 | 2.4 | 0.03 nM | 0.174 nM
14 | B14 | 3 | < 5 | 0.02 nM | 
15 | B15 | 4 | 4.1 | 0.03 nM | 0.204 nM
16 | B16 | 2 | 2.4 | 0.65 nM | 
17 | B17 | 71 | 95.6 | 0.66 nM | 
18 | B18 | 41 | 9.4 | 0.58 nM | 
19 | B19 | 8 | 1.4 | 0.13 nM | 
20 | B20 | 70 | 96.3 | 0.02 nM | 0.091 nM
21 | B21 | 0 | 2.3 | 0.03 nM | 0.403 nM

Target: CCR5 (UniProt P51681)
Experiment: cell-based or functional assay
Remark: another data set of the same source

Row | Molecule | CCR5 sequestration (%) (% of control surface CCR5) | CCR5 signalling (%) (% of Emax of PSC-RANTES) | anti-HIV potency (IC50, nM) by cell fusion assay | anti-HIV potency (IC50, nM) by viral replication assay
22 | NNY-RANTES (n-nonanoyl-RANTES(2-68)) (from UniProt P13501 25-91) (ligand) | 77 | 84.5 | 0.29 nM | 
23 | PSC-RANTES (ligand) | 75 | 100 | 0.02 nM | 0.281 nM
24 | AOP-RANTES, the aminooxypentane oxime of [glyoxylyl]1RANTES(2-68) (from UniProt P13501 25-91) (ligand) | 71 | 80.7 | 1.12 nM | 
25 | Met-RANTES (from UniProt P13501 24-91) (ligand) | 26 | 15 | 75.1 nM | 
